# Laboratory results from patent publication US5414076.
# “And” between values parts separate entries of the source, which are not always exact repeats. Equal entries are not always repeated.
# Molecular target: human GALV receptor protein (gibbon ape leukemia virus receptor) (human)
substance,measurement,value
gibbon ape leukemia virus,Foci/3 × 10^4 Cells (PG4 indicator cells) after exposure to GALV (foci/3 × 10^4 cells),382 and 1000
